# Test: soluble on expression in E. coli; label from the status in PepcDB or PDB records
row,Sequence,soluble on expression in E. coli
1,MTPLSSPLSQYWQTVVERLPEGFTETSLSAQAKSVLTFSDFALDSVIAHPEWLAELESASPQADEWRHYAGWLQEALAGVCDDASLMRELRLFRRRIMVRIAWAQTLSLVDDETILQQLSHLAETLIVGARDWLYAACCREWGTPCNPQGVPQPLLILGMGKLGGGELNFSSDIDLIFAWPEHGETRGGRRELDNAQFFTRLGQRLIKALDQPTMDGFVYRVDMRLRPFGDSGPLVLSFAALEDYYQEQGRDWERYAMVKARLMGDNDDAWSRELRAMLRPFVFRRYIDFSVIQSLRNMKGMIAREVRRRGLKDNIKLGAGGIREIEFIVQVFQLIRGGREPSLQSRSLLPTLDAIAALHLLPENDVAQLRVAYLFLRRLENLLQSINDEQTQTLPADDLNRARLAWGMKAENWPQLVGELTDHMANVRRVFNELIGDDEADTPQEEERSEPWREVWQDALQEDDSTPVLAHLADEDRRQVLTLIADFRKELDKRPIGPRGRQVLDQLMPHLLADVCSREDAAVTLSRITPLLAGIVTRTTYLELLSEFPGALKHLIMLCAASPMIASQLARYPLLLDELLDPGTLYQPTATDAYRDELRQYLLRVPEEDEEQQLEALRQFKQAQLLRIAAADIAGTLPVMKVSDHLTWLAEAMIDAVVQQAWTQMVARYGQPAHLDERQGRGFAVVGYGKLGGWELGYSSDLDLIFLHDCPMDVMTNGEREIDGRQFYLRLAQRIMHLFSTRTSSGILYEVDARLRPSGAAGMLVTSADAFADYQQHEAWTWEHQALVRARVVYGDPQLTSQFDAVRRTIMTTARDGKTLQTEVREMREKMRAHLGNKHRDRFDIKADEGGITDIEFIAQYLVLRYAHEKPKLTRWSDNVRILELLAQNGIMDEHEAQALTVAYTTLRDELHHLALQELPGHVAQTCFSKERALVQASWRKWLVAV,soluble
2,MTQDPHQTADILIIGGGLSGSMLAAQLLRRPGQRRILIIETRSELGRGEAYSATEPGHTLNGNAARMSVDPDNAHDLTEWLTGYLAEGGWPEAAEQKIPVAELFPPRGVFGLYVQQRLREAQVVGEGFGSTVGHVRAEAVDVQVSEQGVSVTLADGRELRGSQAVLATGMYAASRTPQRESNALNAASLDPWDVSVMQQLDPQTRVLIIGSGLTMVDALVSLEKAGHRGPIQVFSRHGLLPHVRRQPPEWSDFLAQDPSIRSTRQLVRKVREQCELAIESGIDWQAPLDTVRANVGRLWNQATDTQRRQFVRHVRPWWESHHHRSPPPSAALLARLVKQGRLSIEAASLQGVASLPSGQVQISVRRRGEHEPTHILGDALINSTGIEYDWRRVDRPLPRQLLARGLIQPGPLALGIAAAHDGAVLDAQGQRSAHLFAMGPPLRGMWWESTAVTDVAIQAKALAMRLALEHHHHHH,soluble
3,MTQIGLYPSALTKPFELSLSAIKSVLEPENPSYSKRVPNCQKCGQHGRKSRLKGHKRSCPFRECPCAKVCVFSNKRSSRVSLE,not soluble
4,MTQTNRVIIFDTTLRDGEQSPGAAMTKEEKIRVARQLEKLGVDIIEAGFAAASPGDFEAVNAIAKTITKSTVCSLSRAIERDIRQAGEAVAPAPKKRIHTFIATSPIHMEYKLKMKPKQVIEAAVKAVKIAREYTDDVEFSCEDALRSEIDFLAEICGAVIEAGATTINIPDTVGYSIPYKTEEFFRELIAKTPNGGKVVWSAHCHNDLGLAVANSLAALKGGARQVECTVNGLGERAGNASVEEIVMALKVRHDLFGLETGIDTTQIVPSSKLVSTITGYPVQPNKAIVGANAFSHESGIHQDGVLKHRETYEIMSAESVGWATNRLSLGKLSGRNAFKTKLADLGIELESEEALNAAFARFKELADKKREIFDEDLHALVSDEMGSMNAESYKFISQKISTETGEEPRADIVFSIKGEEKRASATGSGPVDAIFKAIESVAQSGAALQIYSVNAVTQGTESQGETSVRLARGNRVVNGQGADTDVLVATAKAYLSALSKLEFSAAKPKAQGSGTI,not soluble
5,MTQTVDIENTDNVLSRRDSNAETQQMLRQRFETQPDLMPAQLASELGIAELEVVTALPQAQRVFLPLAHMDELLQSLPEWGSLTTIVMLSGSVFEFKGDFPQGKFAHGYYNLYSKGDGLHGHLKLDGMRAIALISRPFRGSESHSINFFGPQGEVVFKVYLGRDKQRVLFPDQVRRFKALAATFAD,soluble
6,MTQVIIDGDACPVTNSIIELTKGTGIFVTVVRSFSHFSTVIQPEHVNIIYVDDGPDAVDYRIVKLVHSDDLVVTQDYGLASLLLNKAKIVMHHKGFIYNQENINTLLEQRHASAQFRKSGGRTKGPAAFTEEDVSKFESIFSNLIHKYFLETEDLEHHHHHH,soluble
7,MTQVLVRNGIQAVGDGLTSLIIVGKKSVLKNVTFEGKFKEVAQKFVTDGDSWNSMISRIPASGRHPLHYELAHLITVPDASSRGNTPTNAHSIYKELKPINYPEDTKNVHFVLFAEYPDVLSHVAAIARTFCKFSMKTSGIRELNVNIDVVCDKLTNEDAVFLTDLSESVRETARLIDTPANILTTDALVDEAVKVGNATGSKITVIRGEELLKAGFGGIYHVGKAGPTPPAFVVLSHEVPGSTEHIALVGKGVVYDTGGLQIKTKTGMPNMKRDMGGAAGMLEAYSALVKHGFSQTLHACLCIVENNVSPIANKPDDIIKMLSGKTVEINNTDAEGRLILADGVFYAKETLKATTIFDMATLTGAQAWLSGRLHGAAMTNDEQLENEIIKAGKASGDLVAPMLFAPDLFFGDLKSSIADMKNSNLGKMDGPPSAVAGLFIGAHIGFGEGLRWLHLDIAAPAEVGDRGTGYGPALFSTLLGKYTSVPMLKQ,soluble
8,MTQWKNALSEGQLQQALELLIEAIKASPKDASLRSSFIELLCIDGDFERADEQLMQSIKLFPEYLPGASQLRHLVKAAQARKDFAQGAATAKVLGENEELTKSLVSFNLSMVSQDYEQVSELALQIEELRQEKGFLANDTSFSDVRDIDDRLGGYIELFSTAGNYFLVPIASINTLEIKSATSLLESVWRPVEFDIDGLGEGEGHMPMTYVDSESDAQKLGRETDWKQIADKEVYLGLGLKCWLVGEMALPISDLQNLQVIKELALEHHHHHH,soluble
9,MTRAQPEPVQVVKQRRDAALRALVSGVPYITYLGIQFDRRGDELTAVLPFDEKLIGNPMLPAIHGGVTAAFLEVASIIELSWSVLWHEMEQGRLDPDQIEARLPRLPKTIDFTVDYLRSGLPRDAYARARVNRSGRRYASVHVEAWQDNRLRPFAQATGHFLMPARNDLEHHHHHH,soluble
10,MTREAFAPYQCLATDLLKYLPSDQNDGSHDLAHIHRVWVNAHRIQRVEGGDLEILLAATVLHDCVAVEKHSPLRGQASTLSANKAASVLAEMGWPSGRVEQVVHAIKTHSYSAGFEPLTREACILQDSDRLDAIGAVGIARCFYVAGRMGSALYDFENPFAQQRAYQDGAYAIEHFQTKLLKLASGFKTQEGARLAAERHTRLETFLTQFMDEITGAGLEHHHHHH,soluble
11,MTRLAEILDQMSAVLNDLKTVMDQEQQHLSMGQINGSQLQWITEQKSSLLATLDYLEQLRRKEPNTANSVDISQRWQEITVKTQQLRQMNQHNGWLLEGQIERNQQALEMLKPHQEPTLYGANGQTSTTHRGGKKISILEHHHHHH,soluble
12,MTRNGTTSLQHDEMDTTSPPSGSGSGTAPPTTATSPPDYATAATLRSTPAQMSAAITVDLVVAAQREANFLRMIDRKAPLLYEPDVVNHALRRYETFWLPMQAAHPDLNVIPPLDVHWVWHTHMLSPIHYQEDCEKLVGKIIDHKLLSSDEIQKRYDSSVRAWDSYCSAEPYDFLASQTPPTAYKTKCNYDIAGAVQRQRNFNYQVSLPHYTSAKFLSDAVKRYIQFLLLKQTYADQFLTPCYDFDIIWHTHQVHPSSYLRDCTAIFGSLLKHDDTVNDRTKGSKLLKGEALTKKLWTTHFDEPFWRRGCMFRGHNAPAFLGFESQDLACISYGDIHVPSISLKDIPVQREQLRLKLCYGNKKVTTFNADLSQKQVTKSGFSLVWQPTESSTCASIVKFPFERRAAKDLTVELEIFDKMFLQRKDLIKLIGKATLDQLLPPSNSKSAHNVAELQLKASKDSEFTAKVNVTTSVNLNRELQLLVGDFVERQLSADSHLAYLAQCASLNRGALNANSTVHIASHSMVDTRDGTKYTVQVIHSAPLLLSMILVYGREQRLLSMAHLIGADSLPSRDQLDNNLVPFLPHLSNAEERAFVILNKEGDYAIIKGKWSGFSRKQSATKGQKAKPGNPGRLHVDAFNLLKNTVQKLEVPSADGSALFLIGDAQARLPGKRIECRSTNTAEQIASIFCVATLFVLCNPDKIRSRNDSTSVGHQAHKWPLTLACGYGRQLPTNRLLLSADQDGLGGCEIAPMLMCGVGCDGAACGACGACGACGACGGCGGCGGCGGCGGCG,not soluble
13,MTRPKLELSDDEWRQKLTPQEFHVLRRAGTERPFTGEYTDTTTAGIYQCRACGAELFRSTEKFESHCGWPSFFDPKSSDAVTLRPDHSLGMTRTEVLCANCDSHLGHVFAGEGYPTPTDKRYCINSISLRLVPGSV,soluble
14,MTRTELTQYLADFLRVSAFKDYAPNGLQVEGKAEIRTIVTGVTACQALIDEAIRLKADAILVHHGFFWKSEPEVITGMKQRRIKALLAHDINLFGYHLPLDAHPMLGNNATLGRKLGILDAEAVEDVAQGLVWRGKLDLPMSASEFAAMLAEVLGRDPLHIGESSDEIQYLAWCTGGAQDYIDVAASLGVDAFISGEVSERTYHSAVEQGIHYYAAGHHATERFGIEALGRHLAREFNLVHHFVDITNPVLEHHHHHH,soluble
15,MTRTVSMSTAINEAMKISMRRDENVILIGEDVAGGAQVDHLQDDEAWGGVLGVTKGLVQEFGRNRILDTPISEAGYMGAAMAAAATGLRPIAELMFNDFIGSCLDQVLNQGAKFRYMFGGKAKVPVTVRTMHGAGFSAAAQHSQSLYALFTSIPGIKVVVPSTPYDAKGLLLAAIEDDDPVIFFEDKTLYNMKGEVPEGYYTIPLGKADIKREGSDVTIVAIGKQVHTALAAAEQLAKKGLEVEVIDPRSLSPLDEDTILSSVEKTNRLIVIDEANPRCSIATDIAAIVADRGFDLLDAPIKRITAPHTPVPFSPPLEKLYLPTPEKVIETVSEMIGDQSLLHV,not soluble
16,MTSAYFGVAGGGNAGAQSAYFGVGGGPAGGGGGNKSAGGGGAPPPGVSCYLGAGAGGAASGSQSAYFGVGGGPVGGGGGGGAPPAASNDAGYFATPPAAPAGGSSTMTAVGGAPRGASTMTAVGGAPVGGSSTMTAVGGAPSGASTMTAIGGAPRGASTMTAVGGAPMGGGSTMTAVGGAPSGASTMTAVGGAPSGASTMTAIGGAPRGASTMTAVGGAPMGGSSTMTAVGGAPIGGSSTMTAVGGAPRGASTMTAVGGAPGGASTMTAMGGGPSAFGGAPPPPSGSAMGGGGGGGATSAYFGVGSGAMGGGGAGAQSAYFGVGGGPVGGGGGGAKSGGGGGGIPGQSVYMGAGGGGGGGGGGGATSAYFAPR,not soluble

# Reference: the DeepSol protein solubility set
